In the supplement of paper PMC10567573:

B1: PLAGL1 (parent)
chain: DPNKMAFGCEECGKKYNTMLGYKR

Variants of: B1
Assay: protein stability index of a GFP-peptide fusion (GPS, HEK-293T) (PSI 1-6); higher = more stable
Conditions: c terminus: a fixed tail appended
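Note: lentivirally expressed fusions sorted by FACS into six bins by GFP to DsRed ratio, PSI derived from sequencing read proportions per bin multiplied by bin number.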

Question: For DPNKMAFGCEKCGKKYNTMLGYKR, which protein stability index is on record?
Answer: 2.49

Question: For DPNKMAFGCEVCGKKYNTMLGYKR, which protein stability index is on record?
Answer: 2.79

Question: Which protein stability index does the source give for DPNKMAFGCESCGKKYNTMLGYKR here?
Answer: 2.5

Question: For DPNKMAFGCEACGKKYNTMLGYKR, which protein stability index is on record?
Answer: 2.96

Question: With DPNKMAFGCECCGKKYNTMLGYKR as the variant, how does the protein stability index read?
Answer: 1.44

Question: Which protein stability index does the source give for DPNKMAFGCEMCGKKYNTMLGYKR here?
Answer: 2.68

Question: Which protein stability index does the source give for DPNKMAFGCEWCGKKYNTMLGYKR here?
Answer: 1.37

Question: For DPNKMAFGCEICGKKYNTMLGYKR, which protein stability index is on record?
Answer: 2.45

Question: With DPNKMAFGCEDCGKKYNTMLGYKR as the variant, how does the protein stability index read?
Answer: 2.65

Question: With DPNKMAFGCEFCGKKYNTMLGYKR as the variant, how does the protein stability index read?
Answer: 1.85

Question: Which protein stability index does the source give for APNKMAFGCEECGKKYNTMLGYKR here?
Answer: 1.94

Question: Which protein stability index does the source give for SPNKMAFGCEECGKKYNTMLGYKR here?
Answer: 2.05

Question: With HPNKMAFGCEECGKKYNTMLGYKR as the variant, how does the protein stability index read?
Answer: 2.05

Question: With MPNKMAFGCEECGKKYNTMLGYKR as the variant, how does the protein stability index read?
Answer: 2.26

Question: Which protein stability index does the source give for LPNKMAFGCEECGKKYNTMLGYKR here?
Answer: 2.34

Question: For QPNKMAFGCEECGKKYNTMLGYKR, which protein stability index is on record?
Answer: 2.05

Question: With TPNKMAFGCEECGKKYNTMLGYKR as the variant, how does the protein stability index read?
Answer: 2.13

Question: For EPNKMAFGCEECGKKYNTMLGYKR, which protein stability index is on record?
Answer: 1.77

Question: With PPNKMAFGCEECGKKYNTMLGYKR as the variant, how does the protein stability index read?
Answer: 2.08

Question: For DPNKMAFGCTECGKKYNTMLGYKR, which protein stability index is on record?
Answer: 2.21

Question: Which protein stability index does the source give for DPNKMAFGCFECGKKYNTMLGYKR here?
Answer: 2.4

Question: Which protein stability index does the source give for DPNKMAFGCPECGKKYNTMLGYKR here?
Answer: 2.3

Question: With DPNKMAFGCVECGKKYNTMLGYKR as the variant, how does the protein stability index read?
Answer: 2.37

Question: For DPNKMAFGCKECGKKYNTMLGYKR, which protein stability index is on record?
Answer: 2.6

Question: For DPNKMAFGCCECGKKYNTMLGYKR, which protein stability index is on record?
Answer: 1.74

Question: For DPNKMAFGCNECGKKYNTMLGYKR, which protein stability index is on record?
Answer: 2.29

Question: With DPNKMAFGCEECGKKYNTMLGYKD as the variant, how does the protein stability index read?
Answer: 3.65

Question: For DPNKMAFGCEECGKKYNTMLGYKQ, which protein stability index is on record?
Answer: 3.34

Question: Which protein stability index does the source give for DPNKMAFGCEECGKKYNTMLGYKG here?
Answer: 2.74

Question: Which protein stability index does the source give for DPNKMAFGCEECGKKYNTMLGYKY here?
Answer: 2.61

Question: Which protein stability index does the source give for DPNKMAFGCEECGKKYNTMLGYKN here?
Answer: 3.27

Question: With DPNKMAFGCEECGKKYNTMLGYKP as the variant, how does the protein stability index read?
Answer: 2.87

Question: Which protein stability index does the source give for DPNKMAFGCEECGKCYNTMLGYKR here?
Answer: 2.63

Question: For DPNKMAFGCEECGKYYNTMLGYKR, which protein stability index is on record?
Answer: 1.71

Question: Which protein stability index does the source give for DPNKMAFGCEECGKIYNTMLGYKR here?
Answer: 1.58

Question: For DPNKMAFGCEECGKTYNTMLGYKR, which protein stability index is on record?
Answer: 2.58

Question: With DPNKMAFGCEECGKDYNTMLGYKR as the variant, how does the protein stability index read?
Answer: 3.12

Question: For DPNKMAFGCEECGKKYNTMLKYKR, which protein stability index is on record?
Answer: 3.15

Question: With DPNKMAFGCEECGKKYNTMLEYKR as the variant, how does the protein stability index read?
Answer: 3.33

Question: With DPNKMAFGCEECGKKYNTMLSYKR as the variant, how does the protein stability index read?
Answer: 2.87

Question: With DPNKMAFGCEECGKKYNTMLAYKR as the variant, how does the protein stability index read?
Answer: 3.01

Question: With DPNKMAFGCEECGKKYNTMLMYKR as the variant, how does the protein stability index read?
Answer: 2.06

Question: For DPNKMAFGCEECGKKYNTMLNYKR, which protein stability index is on record?
Answer: 2.55

Question: For DPNKMAFGCEECGKKYNTMLCYKR, which protein stability index is on record?
Answer: 3.09

Question: For DPNKMAFGCEECGKKYNTMLHYKR, which protein stability index is on record?
Answer: 2.56

Question: For DPNKMAFGCEECGKKYNTMLPYKR, which protein stability index is on record?
Answer: 2.64

Question: With DPNKMAFGCEECGKKYNTMLIYKR as the variant, how does the protein stability index read?
Answer: 2.26

Question: With DPNKMAFGCEECGKKYNTMLGYSR as the variant, how does the protein stability index read?
Answer: 2.17

Question: With DPNKMAFGCEECGKKYNTMLGYHR as the variant, how does the protein stability index read?
Answer: 1.98

Question: Which protein stability index does the source give for DPNKMAFGCEECGKKYNTMLGYDR here?
Answer: 2.81

Question: For DPNKMAFGCEECGKKYNTMLGYCR, which protein stability index is on record?
Answer: 2.21

Question: For DPNKMAFGCEECGKKYNTMLGYWR, which protein stability index is on record?
Answer: 1.35

Question: Which protein stability index does the source give for DPNKMAFGCEECGKKYNTMLGYLR here?
Answer: 2.73

Question: With DPNVMAFGCEECGKKYNTMLGYKR as the variant, how does the protein stability index read?
Answer: 1.98

Question: Which protein stability index does the source give for DPNRMAFGCEECGKKYNTMLGYKR here?
Answer: 1.64

Question: With DPNTMAFGCEECGKKYNTMLGYKR as the variant, how does the protein stability index read?
Answer: 2.61

Question: With DPNNMAFGCEECGKKYNTMLGYKR as the variant, how does the protein stability index read?
Answer: 2.55

Question: With DPNPMAFGCEECGKKYNTMLGYKR as the variant, how does the protein stability index read?
Answer: 3.01

Question: With DPNDMAFGCEECGKKYNTMLGYKR as the variant, how does the protein stability index read?
Answer: 2.53

Question: For DPNLMAFGCEECGKKYNTMLGYKR, which protein stability index is on record?
Answer: 2.85

Question: For DPNMMAFGCEECGKKYNTMLGYKR, which protein stability index is on record?
Answer: 2.6

Question: For DPNYMAFGCEECGKKYNTMLGYKR, which protein stability index is on record?
Answer: 2.59

Question: For DPNWMAFGCEECGKKYNTMLGYKR, which protein stability index is on record?
Answer: 2.08

Question: For DPNKMAFMCEECGKKYNTMLGYKR, which protein stability index is on record?
Answer: 1.96

Question: For DPNKMAFECEECGKKYNTMLGYKR, which protein stability index is on record?
Answer: 2.74

Question: With DPNKMAFTCEECGKKYNTMLGYKR as the variant, how does the protein stability index read?
Answer: 3.12

Question: Which protein stability index does the source give for DPNKMAFQCEECGKKYNTMLGYKR here?
Answer: 1.98

Question: With DPNKMAFVCEECGKKYNTMLGYKR as the variant, how does the protein stability index read?
Answer: 2.92

Question: With DPNKMAFSCEECGKKYNTMLGYKR as the variant, how does the protein stability index read?
Answer: 2.19

Question: For DPNKMAFPCEECGKKYNTMLGYKR, which protein stability index is on record?
Answer: 2.31

Question: For DPNKMANGCEECGKKYNTMLGYKR, which protein stability index is on record?
Answer: 2.45

Question: For DPNKMAQGCEECGKKYNTMLGYKR, which protein stability index is on record?
Answer: 3.45

Question: Which protein stability index does the source give for DPNKMATGCEECGKKYNTMLGYKR here?
Answer: 2.3

Question: For DPNKMAEGCEECGKKYNTMLGYKR, which protein stability index is on record?
Answer: 3.21

Question: Which protein stability index does the source give for DPNKMAPGCEECGKKYNTMLGYKR here?
Answer: 2.57

Question: With DPNKMAKGCEECGKKYNTMLGYKR as the variant, how does the protein stability index read?
Answer: 2.31

Question: Which protein stability index does the source give for DPNKMAYGCEECGKKYNTMLGYKR here?
Answer: 2.53

Question: For DPNKMAFGSEECGKKYNTMLGYKR, which protein stability index is on record?
Answer: 4.08

Question: For DPNKMAFGAEECGKKYNTMLGYKR, which protein stability index is on record?
Answer: 3.38

Question: For DPNKMAFGDEECGKKYNTMLGYKR, which protein stability index is on record?
Answer: 3.78

Question: Which protein stability index does the source give for DPNKMAFGFEECGKKYNTMLGYKR here?
Answer: 3.32

Question: With DPNKMAFGGEECGKKYNTMLGYKR as the variant, how does the protein stability index read?
Answer: 3.67

Question: For DPNKMAFGKEECGKKYNTMLGYKR, which protein stability index is on record?
Answer: 3.6

Question: Which protein stability index does the source give for DPNKMAFGTEECGKKYNTMLGYKR here?
Answer: 4.07

Question: With DPNKMAFGIEECGKKYNTMLGYKR as the variant, how does the protein stability index read?
Answer: 3.32

Question: With DPNKMAFGMEECGKKYNTMLGYKR as the variant, how does the protein stability index read?
Answer: 3.16

Question: Which protein stability index does the source give for DPNKMAFGYEECGKKYNTMLGYKR here?
Answer: 3.61

Question: With DPNKMEFGCEECGKKYNTMLGYKR as the variant, how does the protein stability index read?
Answer: 3.09

Question: For DPNKMSFGCEECGKKYNTMLGYKR, which protein stability index is on record?
Answer: 2.33

Question: With DPNKMMFGCEECGKKYNTMLGYKR as the variant, how does the protein stability index read?
Answer: 2.75

Question: Which protein stability index does the source give for DPNKMTFGCEECGKKYNTMLGYKR here?
Answer: 2.29

Question: With DPNKMPFGCEECGKKYNTMLGYKR as the variant, how does the protein stability index read?
Answer: 2.53

Question: Which protein stability index does the source give for DPNKMAFGCEECGKKYNTMHGYKR here?
Answer: 3.08

Question: With DPNKMAFGCEECGKKYNTMNGYKR as the variant, how does the protein stability index read?
Answer: 2.26
